Values quoted from earlier work as cited in US12370207B2, “Low-intensity treatment of hematological disorders” (Celator Pharmaceuticals, Inc., priority 2018, dated 2025).

B1: Pegfilgrastim: exogenous (recombinant) GCSF agent (protein, UniProt P09919 31-207, looked up)
Granulocyte …: TPLGPASSLPQSFLLKCLEQVRKIQGDGAALQEKLVSECATYKLCHPEELVLLGHSLGIPWAPLSSCPSQALQLAGCLSQLHSGLFLYQGLLQALEGISPELGPTLDTLQLDVADFATTIWQQMEELGMAPALQPTQGAMPAFASAFQRRAGGVLVASHLQSFLEVSYRVLRHLAQP
modifications: PEGylated, N-terminal Met (pegfilgrastim)
notes: exogenous (recombinant) GCSF agent
B2: Filgrastim: exogenous (recombinant) GCSF agent (protein, UniProt P09919 31-207, looked up)
Granulocyte …: B1 Granulocyte …
modifications: N-terminal Met (filgrastim)
notes: as for B1

Legend:
[1] = tested on: hematological malignancies; conditions: single agent, ISICT patients
[2] = population mean

| Molecule | median overall survival [1] | response rates [1] | Fi, bioavailability of first-order absorption process [2] | CL, clearance ([2]; coefficient of equation (WTKG/70)^0.641) |
| --- | --- | --- | --- | --- |
| Nc1ccn([C@@H]2O[C@H](CO)[C@@H](O)[C@@H]2O)c(=O)n1 [LDAC] | 7-10 months | less than 20% | – | – |
| B1 | – | – | 0.646 | 0.362 · (WTKG/70)^0.641 L/h |
| B2 | – | – | 0.105 | – |
